± gives the standard deviation of the averaged measurements.
Test system: ATP
Assay: switch fluorescence ratio, 500 uM ATP over buffer (Cy3 cluster intensity, sum of 5 cycles each) (fold (ratio)); higher = stronger signal-on switching upon ATP binding; sequences stand for … in TCGTCGGCAGCGTCAGATGTGTATAAGAGACAGTTTTTTTTTTTTTTTTTTTTTTTTT…TC
Conditions: aptamer strand: ATP DNA aptamer (quencher-CACCTGGGGGAGTATTGCGGAGGAAGG + anchor), 100 nM annealed; ATP concentration: 500 uM
In short: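 Switching-strand clusters labelled with Cy3 on a modified Illumina MiSeq flow-cell were annealed to 100 nM quencher-labelled ATP aptamer, imaged in selection buffer, and re-imaged after 15 min with 500 uM ATP at 22 °C. This was done over five cycles with NaOH stripping and re-annealing in between. The fluorescence ratio is summed target-cycle over summed buffer-cycle Cy3 intensity per cluster, averaged per switch-domain sequence, excluding clusters outside 100-1000 RFU.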
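Note: ATP exposure 15 min at 22 °C before imaging.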

Row | Sequence | switch fluorescence ratio
1 | GGTTAAAATC | 1.02 ± 0.023
2 | GGAGTCTGG | 1.0086 ± 0.0004
3 | AGGGTAATTG | 0.998 ± 0.036
4 | GGCTAGCCTA | 1.01 ± 0.013
5 | CGTTTATTGA | 1.004 ± 0.0086
6 | TAGAGGCTGC | 0.958 ± 0.042
7 | TTGCTTAAGG | 0.997 ± 0.026
8 | CAAGGGGCAC | 1.02 ± 0.02
9 | AAAACTTTGA | 1 ± 0.017
10 | CGTAGAATGC | 1.44 ± 0.082
11 | ACCTTGTATA | 0.971 ± 0.022
12 | AGCGCATGTG | 0.996 ± 0.013
13 | CACAGGGAGT | 1.03 ± 0.021
14 | TCCTGTGGGA | 1.007 ± 0.0053
15 | ACATTAAGTA | 1.02 ± 0.037
16 | CGGTGCGACG | 0.958 ± 0.041
17 | GGGGCTGTCT | 1 ± 0.071
18 | TGTGTTTAGT | 1.01 ± 0.013
19 | CTTCATAGGG | 0.968 ± 0.024
20 | AGATTCACTT | 1.01 ± 0.013
21 | CCACAGAGGG | 1.21 ± 0.17
22 | TAATCTAGAA | 1.019 ± 0.0017
23 | ACAGTAGTTA | 1.046 ± 0.0065
24 | GGTTTCCGCC | 1.169 ± 0.0023
25 | TCGAAGAAGT | 0.997 ± 0.016

Row | Sequence | switch fluorescence ratio
26 | AGGATTGGGT | 0.99 ± 0.017
27 | ATTTGGGGGG | 1 ± 0.047
28 | TGGGGAGAGG | 1.02 ± 0.037
29 | CAGGGTTTTT | 0.999 ± 0.017
30 | TTCCGGGGGC | 1.61 ± 0.98
31 | CGCCGAGTTT | 1.05 ± 0.071
32 | CTTGTCGAGG | 0.986 ± 0.042
33 | GGGGGGTATG | 0.982 ± 0.022
34 | TTGGACTCCG | 1.14 ± 0.15
35 | TTTAAGTAGT | 1.01 ± 0.028
36 | CACGGCAGCT | 1.09 ± 0.02
37 | CTTAGATGTT | 0.963 ± 0.024
38 | TTTAGGGATA | 1.09 ± 0.19
39 | GCCCCCTTCG | 1.08 ± 0.065
40 | GGAGATGTGG | 0.989 ± 0.011
41 | TCTTTCCTTC | 1.04 ± 0.12
42 | AGTTTACGTG | 1 ± 0.0033
43 | TTTATTTCTA | 0.981 ± 0.013
44 | ATAATTTGGG | 0.99 ± 0.017
45 | TTCCTATGTT | 0.991 ± 0.056
46 | TGCACCAGGA | 1.13 ± 0.067
47 | TAATTAGGAA | 1.02 ± 0.03
48 | GAGCTTCTGT | 1 ± 0.04
49 | TCTAGGTAGA | 0.993 ± 0.026
50 | GATTTGTGTC | 0.955 ± 0.081

Row | Sequence | switch fluorescence ratio
51 | TCAGCCGGGA | 1.08 ± 0.024
52 | GTCAGGCTGA | 0.97427 ± 0.00022
53 | GGGTGCGATT | 1.03 ± 0.025
54 | TCGAAATCGG | 1.03 ± 0.021
55 | AAGTATACTT | 0.986 ± 0.0049
56 | CCCGGGTAGG | 1.041 ± 0.0026
57 | TGGCGATTGT | 0.986 ± 0.014
58 | ATGTAGGGTC | 1.02 ± 0.02
59 | CGTGAAATCG | 1.02 ± 0.019
60 | AGCGTTTCCG | 0.99 ± 0.028
61 | ATTGGGGGAT | 1.02 ± 0.078
62 | AAAGAACACG | 1.05 ± 0.1
63 | TTGGGTTGGG | 0.987 ± 0.018
64 | ATCATGTGTT | 0.994 ± 0.022
65 | CTTTTGGGGG | 0.991 ± 0.028
66 | TACTTCGAGA | 1.081 ± 0.0099
67 | CTGATCTGTT | 0.998 ± 0.024
68 | CGAGGGTAGG | 1.04 ± 0.025
69 | ACGCGTGCGT | 0.988 ± 0.016
70 | CGGGGGAGAA | 1 ± 0.034
71 | TGGGTTGTGG | 1.01 ± 0.053
72 | TTGGCTCGCA | 1.11 ± 0.15
73 | GAGGCGGATT | 1.01 ± 0.026
74 | GTAGTATGAG | 0.999 ± 0.014
75 | ATTACGTACT | 1.77 ± 0.11

Row | Sequence | switch fluorescence ratio
76 | CGCTTCGTGA | 1.06 ± 0.059
77 | AAACTGAATC | 1 ± 0.094
78 | ACGTTGGTGC | 1.06 ± 0.029
79 | GGGGGGAGGC | 0.995 ± 0.028
80 | TTTAATTGCA | 0.988 ± 0.038
81 | AATAGGGTGT | 1.07 ± 0.046
82 | CTCCGTTAGT | 3.1 ± 0.065
83 | GATTATATAT | 0.986 ± 0.015
84 | ATTATGTCAG | 0.991 ± 0.024
85 | CGGACCGGAA | 1.011 ± 0.01
86 | GGGGTGTGAG | 0.989 ± 0.017
87 | GGGTAAAGCT | 1.14 ± 0.018
88 | CAAGCGTGCG | 0.98 ± 0.012
89 | CGGAAGTTGG | 0.996 ± 0.02
90 | GAATGGCTGG | 0.962 ± 0.0099
91 | ATGGGGTCAG | 0.993 ± 0.021
92 | TGATCAGGGA | 1.02 ± 0.021
93 | GCGAGCAGTA | 1.01 ± 0.028
94 | CCTCTGGCGC | 3.9 ± 0.3
95 | AAGTTGGGAT | 0.972 ± 0.037
96 | AGGTGGTAGT | 1 ± 0.012
97 | TGGGATATGG | 0.996 ± 0.029
98 | CGGTATTGTG | 0.968 ± 0.028
99 | GTGGTGCTTA | 0.996 ± 0.032
100 | TTGGTTCGC | 0.994 ± 0.094

Reference: the supplement of paper PMC10126150
